Laboratory results published in publication PMC9482650, “Quantitative fragmentomics allow affinity mapping of interactomes” (Nature Communications, 2022).

T1: HTRA4, P83105
T1 sequence (P83105 378-476, limits assumed, looked up): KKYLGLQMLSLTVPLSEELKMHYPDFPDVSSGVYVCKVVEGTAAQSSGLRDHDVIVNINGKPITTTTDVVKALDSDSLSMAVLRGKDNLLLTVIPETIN

T2: LRRC7, Q96NW7
T2 sequence (Q96NW7 1440-1537, limits assumed, looked up): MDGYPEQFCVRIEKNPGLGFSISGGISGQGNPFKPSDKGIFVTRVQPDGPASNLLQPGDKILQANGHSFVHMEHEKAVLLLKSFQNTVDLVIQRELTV

T3: SNTB1, Q13884
T3 sequence (Q13884 107-205, limits assumed, looked up): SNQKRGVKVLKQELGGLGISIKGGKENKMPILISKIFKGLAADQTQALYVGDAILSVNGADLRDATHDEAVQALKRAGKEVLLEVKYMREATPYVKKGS

T4: NHERF3_1, Q5T2W1
T4 sequence (Q5T2W1 4-100, limits assumed, looked up): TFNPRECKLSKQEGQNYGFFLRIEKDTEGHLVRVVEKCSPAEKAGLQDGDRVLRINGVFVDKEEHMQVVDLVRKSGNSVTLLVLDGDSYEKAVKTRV

T5: MPP2, Q14168
T5 sequence (Q14168 180-250, limits assumed, looked up): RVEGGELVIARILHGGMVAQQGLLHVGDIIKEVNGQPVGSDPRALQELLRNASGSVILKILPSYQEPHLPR

T6: DLG3_1, Q92796
T6 sequence (Q92796 125-227, limits assumed, looked up): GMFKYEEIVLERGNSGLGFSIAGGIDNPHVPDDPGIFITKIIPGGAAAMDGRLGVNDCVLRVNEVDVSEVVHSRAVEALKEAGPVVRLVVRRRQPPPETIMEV

T7: PDZRN3_1, Q9UPQ7
T7 sequence (Q9UPQ7 244-349, limits assumed, looked up): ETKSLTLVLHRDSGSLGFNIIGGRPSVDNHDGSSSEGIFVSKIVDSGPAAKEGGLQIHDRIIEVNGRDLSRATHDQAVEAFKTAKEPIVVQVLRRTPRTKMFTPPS

T8: LIN7B, Q9HAP6
T8 sequence (Q9HAP6 88-185, limits assumed, looked up): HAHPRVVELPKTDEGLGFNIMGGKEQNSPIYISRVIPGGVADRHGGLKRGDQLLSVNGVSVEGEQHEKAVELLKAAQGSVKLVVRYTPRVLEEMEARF

T9: NHERF3_4, Q5T2W1
T9 sequence (Q5T2W1 373-468, limits assumed, looked up): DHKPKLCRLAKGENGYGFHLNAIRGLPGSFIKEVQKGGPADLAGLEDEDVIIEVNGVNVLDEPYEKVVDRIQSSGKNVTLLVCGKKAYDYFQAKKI

T10: MPP6, Q9NZW5
T10 sequence (Q9NZW5 125-219, limits assumed, looked up): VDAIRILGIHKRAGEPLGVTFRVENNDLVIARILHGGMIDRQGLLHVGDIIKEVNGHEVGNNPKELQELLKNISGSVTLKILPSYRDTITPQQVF

T11: TX1BP3, O14907
T11 sequence (O14907 10-122, limits assumed, looked up): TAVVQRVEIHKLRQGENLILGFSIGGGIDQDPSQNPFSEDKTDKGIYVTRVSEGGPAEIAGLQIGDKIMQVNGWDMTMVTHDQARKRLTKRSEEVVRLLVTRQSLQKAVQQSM

B1: HPV30-E6, P36809 (peptide)
chain: RHTTSTETAV
B2: FRMPD4, Q14CM0 (peptide)
chain: RLPKIKETTV
B3: HPV18-E6, P06463 (peptide)
chain: RLQRRRETQV
B4: ATP2B4, P23634 (peptide)
chain: SSLQSLETSV

Target: T1, HTRA4, P83105
Assay: holdup assay
Design: key: below the threshold = too weak to quantify, mostly under pKd 3.1 to 4
Settings: plain residues with an end cap or a label only (N-terminal biotin on a linker: ttds)

Binder | pKd
B1 | below the threshold
B2 | below the threshold
B3 | below the threshold
B4 | 3.6

Target: MAST2, Q6P0Q8
Assay: holdup assay
Design: key: below the threshold = too weak to quantify, mostly under pKd 3.1 to 4
Settings: plain residues with an end cap or a label only (N-terminal biotin on a linker: ttds)

Sequence of MAST2, Q6P0Q8 (Q6P0Q8 1099-1202): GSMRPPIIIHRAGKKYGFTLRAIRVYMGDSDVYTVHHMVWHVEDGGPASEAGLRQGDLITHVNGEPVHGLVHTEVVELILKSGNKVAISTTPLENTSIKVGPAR

Binder | pKd
B1 | 5.52
B2 | 4.93
B3 | 4.78
B4 | 5.53

Target: T2, LRRC7, Q96NW7
Assay: holdup assay
Design: key: below the threshold = too weak to quantify, mostly under pKd 3.1 to 4
Settings: plain residues with an end cap or a label only (N-terminal biotin on a linker: ttds)

Binder | pKd
B1 | below the threshold
B2 | 3.58
B3 | 3.14
B4 | below the threshold

Target: T3, SNTB1, Q13884
Assay: holdup assay
Design: key: below the threshold = too weak to quantify, mostly under pKd 3.1 to 4
Settings: plain residues with an end cap or a label only (N-terminal biotin on a linker: ttds)

Binder | pKd
B1 | 5.1
B2 | 5.17
B3 | 5.23
B4 | 5.59

Target: LNX1_3, Q8TBB1
Assay: holdup assay
Design: key: below the threshold = too weak to quantify, mostly under pKd 3.1 to 4
Settings: plain residues with an end cap or a label only (N-terminal biotin on a linker: ttds)

Sequence of LNX1_3, Q8TBB1 (Q8TBB1 500-596): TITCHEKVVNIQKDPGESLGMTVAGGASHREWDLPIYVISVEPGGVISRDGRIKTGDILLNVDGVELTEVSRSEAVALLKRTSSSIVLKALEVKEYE

Binder | pKd
B1 | below the threshold
B2 | below the threshold
B3 | below the threshold
B4 | 3.59

Target: GRIP2_5, Q9C0E4
Assay: holdup assay
Design: key: below the threshold = too weak to quantify, mostly under pKd 3.1 to 4
Settings: plain residues with an end cap or a label only (N-terminal biotin on a linker: ttds)

Sequence of GRIP2_5, Q9C0E4 (Q9C0E4 544-642): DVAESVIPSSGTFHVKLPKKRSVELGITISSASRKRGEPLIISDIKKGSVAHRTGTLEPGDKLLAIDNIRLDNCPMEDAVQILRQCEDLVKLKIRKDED

Binder | pKd
B1 | 3.75
B2 | below the threshold
B3 | below the threshold
B4 | below the threshold

Target: PDLIM1, O00151
Assay: holdup assay
Design: key: below the threshold = too weak to quantify, mostly under pKd 3.1 to 4
Settings: plain residues with an end cap or a label only (N-terminal biotin on a linker: ttds)

Sequence of PDLIM1, O00151 (O00151 1-87): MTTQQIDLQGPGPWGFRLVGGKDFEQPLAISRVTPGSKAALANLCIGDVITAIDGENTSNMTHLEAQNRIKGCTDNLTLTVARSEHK

Binder | pKd
B1 | below the threshold
B2 | below the threshold
B3 | below the threshold
B4 | 3.66

Target: T4, NHERF3_1, Q5T2W1
Assay: holdup assay
Design: key: below the threshold = too weak to quantify, mostly under pKd 3.1 to 4
Settings: plain residues with an end cap or a label only (N-terminal biotin on a linker: ttds)

Binder | pKd
B1 | 4.87
B2 | below the threshold
B3 | 4.05
B4 | 4.41

Target: T5, MPP2, Q14168
Assay: holdup assay
Design: key: below the threshold = too weak to quantify, mostly under pKd 3.1 to 4
Settings: plain residues with an end cap or a label only (N-terminal biotin on a linker: ttds)

Binder | pKd
B1 | below the threshold
B2 | below the threshold
B3 | below the threshold
B4 | below the threshold

Target: TJP1_2, Q07157
Assay: holdup assay
Design: key: below the threshold = too weak to quantify, mostly under pKd 3.1 to 4
Settings: plain residues with an end cap or a label only (N-terminal biotin on a linker: ttds)

Sequence of TJP1_2, Q07157 (Q07157 181-274): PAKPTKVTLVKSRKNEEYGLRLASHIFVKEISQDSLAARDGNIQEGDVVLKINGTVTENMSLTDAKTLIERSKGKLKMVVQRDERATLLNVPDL

Binder | pKd
B1 | below the threshold
B2 | below the threshold
B3 | below the threshold
B4 | below the threshold

Target: SCRIB_2, Q14160
Assay: holdup assay
Design: key: below the threshold = too weak to quantify, mostly under pKd 3.1 to 4
Settings: plain residues with an end cap or a label only (N-terminal biotin on a linker: ttds)

Sequence of SCRIB_2, Q14160 (Q14160 857-960): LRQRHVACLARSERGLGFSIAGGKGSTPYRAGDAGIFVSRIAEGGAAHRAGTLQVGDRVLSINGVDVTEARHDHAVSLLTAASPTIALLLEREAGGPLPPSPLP

Binder | pKd
B1 | 5.11
B2 | 4.61
B3 | 4.44
B4 | 4.9

Target: DLG2_3, Q15700
Assay: holdup assay
Design: key: below the threshold = too weak to quantify, mostly under pKd 3.1 to 4
Settings: plain residues with an end cap or a label only (N-terminal biotin on a linker: ttds)

Binder | pKd
B1 | 4.79
B2 | 5.15
B3 | 5.06
B4 | 4.88

Target: GRIP2_3, Q9C0E4
Assay: holdup assay
Design: key: below the threshold = too weak to quantify, mostly under pKd 3.1 to 4
Settings: plain residues with an end cap or a label only (N-terminal biotin on a linker: ttds)

Sequence of GRIP2_3, Q9C0E4 (Q9C0E4 238-339): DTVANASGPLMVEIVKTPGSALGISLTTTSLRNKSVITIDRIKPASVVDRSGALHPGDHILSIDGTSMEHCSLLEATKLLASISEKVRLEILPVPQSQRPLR

Binder | pKd
B1 | 3.61
B2 | below the threshold
B3 | below the threshold
B4 | below the threshold

Target: T6, DLG3_1, Q92796
Assay: holdup assay
Design: key: below the threshold = too weak to quantify, mostly under pKd 3.1 to 4
Settings: plain residues with an end cap or a label only (N-terminal biotin on a linker: ttds)

Binder | pKd
B1 | 4.45
B2 | 4.51
B3 | 4.34
B4 | 4.35

Target: GRIP2_6, Q9C0E4
Assay: holdup assay
Design: key: below the threshold = too weak to quantify, mostly under pKd 3.1 to 4
Settings: plain residues with an end cap or a label only (N-terminal biotin on a linker: ttds)

Sequence of GRIP2_6, Q9C0E4 (Q9C0E4 648-740): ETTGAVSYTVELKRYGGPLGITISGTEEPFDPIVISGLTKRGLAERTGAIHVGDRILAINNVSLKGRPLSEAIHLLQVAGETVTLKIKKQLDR

Binder | pKd
B1 | 3.77
B2 | 3.39
B3 | below the threshold
B4 | below the threshold

Target: T7, PDZRN3_1, Q9UPQ7
Assay: holdup assay
Design: key: below the threshold = too weak to quantify, mostly under pKd 3.1 to 4
Settings: plain residues with an end cap or a label only (N-terminal biotin on a linker: ttds)

Binder | pKd
B1 | 4.68
B2 | 4.47
B3 | 4.82
B4 | 5.15

Target: ARHGEF12, Q9NZN5-2
Assay: holdup assay
Design: key: below the threshold = too weak to quantify, mostly under pKd 3.1 to 4
Settings: plain residues with an end cap or a label only (N-terminal biotin on a linker: ttds)

Sequence of ARHGEF12, Q9NZN5-2 (Q9NZN5 other isoform, or with tags, fused parts or gaps): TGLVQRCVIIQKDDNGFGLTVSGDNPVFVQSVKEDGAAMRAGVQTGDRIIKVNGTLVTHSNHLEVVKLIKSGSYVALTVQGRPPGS

Binder | pKd
B1 | 4.2
B2 | 4.23
B3 | 3.91
B4 | 4.4

Target: Inadl_1, Q8NI35
Assay: holdup assay
Design: key: below the threshold = too weak to quantify, mostly under pKd 3.1 to 4
Settings: plain residues with an end cap or a label only (N-terminal biotin on a linker: ttds)

Sequence of Inadl_1, Q8NI35 (Q8NI35 113-229): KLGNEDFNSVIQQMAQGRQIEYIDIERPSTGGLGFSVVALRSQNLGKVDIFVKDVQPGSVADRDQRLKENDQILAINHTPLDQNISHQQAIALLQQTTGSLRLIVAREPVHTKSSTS

Binder | pKd
B1 | below the threshold
B2 | below the threshold
B3 | below the threshold
B4 | below the threshold

Target: T8, LIN7B, Q9HAP6
Assay: holdup assay
Design: key: below the threshold = too weak to quantify, mostly under pKd 3.1 to 4
Settings: plain residues with an end cap or a label only (N-terminal biotin on a linker: ttds)

Binder | pKd
B1 | 3.71
B2 | 4.52
B3 | 3.58
B4 | 4.3

Target: T9, NHERF3_4, Q5T2W1
Assay: holdup assay
Design: key: below the threshold = too weak to quantify, mostly under pKd 3.1 to 4
Settings: plain residues with an end cap or a label only (N-terminal biotin on a linker: ttds)

Binder | pKd
B1 | below the threshold
B2 | below the threshold
B3 | below the threshold
B4 | 3.63

Target: T10, MPP6, Q9NZW5
Assay: holdup assay
Design: key: below the threshold = too weak to quantify, mostly under pKd 3.1 to 4
Settings: plain residues with an end cap or a label only (N-terminal biotin on a linker: ttds)

Binder | pKd
B1 | below the threshold
B2 | below the threshold
B3 | below the threshold
B4 | 3.56

Target: GORASP2, Q9H8Y8
Assay: holdup assay
Design: key: below the threshold = too weak to quantify, mostly under pKd 3.1 to 4
Settings: plain residues with an end cap or a label only (N-terminal biotin on a linker: ttds)

Binder | pKd
B1 | below the threshold
B2 | 4.02
B3 | 3.89
B4 | 3.98

Target: DLG2_2, Q15700
Assay: holdup assay
Design: key: below the threshold = too weak to quantify, mostly under pKd 3.1 to 4
Settings: plain residues with an end cap or a label only (N-terminal biotin on a linker: ttds)

Binder | pKd
B1 | 5.19
B2 | 5.5
B3 | 5.19
B4 | 5.08

Target: LDB3, O75112
Assay: holdup assay
Design: key: below the threshold = too weak to quantify, mostly under pKd 3.1 to 4
Settings: plain residues with an end cap or a label only (N-terminal biotin on a linker: ttds)

Sequence of LDB3, O75112 (O75112 1-94): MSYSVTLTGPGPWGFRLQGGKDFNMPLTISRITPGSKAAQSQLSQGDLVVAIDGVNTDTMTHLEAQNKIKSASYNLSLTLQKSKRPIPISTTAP

Binder | pKd
B1 | below the threshold
B2 | below the threshold
B3 | below the threshold
B4 | below the threshold

Target: FRMPD2_1, Q68DX3
Assay: holdup assay
Design: key: below the threshold = too weak to quantify, mostly under pKd 3.1 to 4
Settings: plain residues with an end cap or a label only (N-terminal biotin on a linker: ttds)

Sequence of FRMPD2_1, Q68DX3 (Q68DX3 770-861): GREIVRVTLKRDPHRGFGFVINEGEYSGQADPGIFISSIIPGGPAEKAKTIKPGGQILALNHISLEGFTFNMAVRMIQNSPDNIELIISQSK

Binder | pKd
B1 | 4.14
B2 | below the threshold
B3 | 4.1
B4 | 4.17

Target: T11, TX1BP3, O14907
Assay: holdup assay
Design: key: below the threshold = too weak to quantify, mostly under pKd 3.1 to 4
Settings: plain residues with an end cap or a label only (N-terminal biotin on a linker: ttds)

Binder | pKd
B1 | 4.65
B2 | 4.57
B3 | 4.67
B4 | 4.62
